From patent US20180016322A1 (INSERM INSTITUT NATIONAL DE LA SANTE ET DE LA RECHERCHE …, published 2018) come the findings set out here.

For the assay, the target named is synthetic MBP-HIS-EBOV-GP fusion peptide (Zaire Ebolavirus (EBOV), UniProt P0AEX9 27-392 = MBP). Description: ELISA on coated recombinant fusion protein.

B1: murine monoclonal antibody 3327 (antibody, V domains shown)
VH: EVQLQESGPSLGKPSQTLSLTCSVTGDSITSGYWNWIRKFPGSKLEYMGYITSSGSTYYNPSLKSRISITRDTSKNQYYLQLNSVTSEDTATYYCAREGARSSGGWYFDVWGAGTTVTVSS
VL: DIVMTQSHKFMSTSVGDRVSITCKASQDVSSAVVWYQQKPGQSPKLLIYWASTRHTGVPDRFTGSGSGTDYTLTISSVQAEDLALYYCQQHYSTPTFGGGTKLEIKR
Turning to B1, the binding result was “no binding”.
